In PMC2706832:

Target: wild-type CCR1 expressed on HEK293 cells (human) (UniProt P32246)
Sequence (P32246 whole entry): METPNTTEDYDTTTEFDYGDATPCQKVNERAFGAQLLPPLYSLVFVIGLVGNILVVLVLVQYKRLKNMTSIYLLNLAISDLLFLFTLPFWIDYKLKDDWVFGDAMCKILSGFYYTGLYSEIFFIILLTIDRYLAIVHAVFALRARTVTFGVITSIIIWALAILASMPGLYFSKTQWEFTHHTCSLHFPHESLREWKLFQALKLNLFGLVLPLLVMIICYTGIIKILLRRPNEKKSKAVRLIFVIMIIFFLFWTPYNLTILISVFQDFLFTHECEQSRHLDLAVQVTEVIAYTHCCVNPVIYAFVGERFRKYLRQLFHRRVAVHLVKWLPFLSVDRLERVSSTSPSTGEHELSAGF

B1: CCL14 full length (1-74) (ligand)
chain: TKTESSSRGPYHPSECCFTYTTYKIPRQRIMDYYETNSQCSKPGIVFITKRGHSVCTNPSDKWVQDYIKDMKEN
**Q.** For B1, which EC50 for calcium flux in CCR1-transfected HEK293 cells is on record?
**A.** > 1000 nM
